US20230364254A1, “METHODS FOR TREATING CANCERS WITH ANTIBODY DRUG CONJUGATES (ADC) THAT BIND TO 191P4D12 PROTEINS” (priority 2020, published 2023)

Tested on: patients with locally advanced or metastatic urothelial cancer
Assay: Same phase 2 study: safety (adverse events, NCI CTCAE v4.03)
Type: in vivo, human
Source text: Safety assessments will be based on the information collected through the safety surveillance process and will include the data from recorded adverse events (AEs) including SAEs, recording of concomitant medication, physical examination findings, cardiac monitoring, and laboratory tests.
The assessment of safety during the course of this study will consist of the surveillance and recording of AEs including SAEs, recording of concomitant medication, and measurements of protocol-specified physical examination findings, cardiac monitoring, and laboratory tests.
AE severity should be graded using the National Cancer Institute's Common Terminology Criteria for Adverse Events (NCI CTCAE), Version 4.03. These criteria are provided in the study manual.
An overview of AEs will provide a tabulation of the incidence of all AEs, treatment-emergent AEs, treatment-related AEs, Grade 3 and higher AEs. SAEs, treatment-related SAEs, deaths, and AEs leading to study treatment discontinuation. Adverse events will be defined as treatment emergent if they are newly occurring or worsened following study treatment.
AEs will be classified by system organ class and preferred tem using the Medical Dictionary for Regulatory Activities (MedDRA) and graded using NCI CTCAE, Version 4.03.
The incidence of AEs will be summarized by system organ class, preferred term, severity and relationship to study drug. In the event of multiple occurrences of the same AE in one patient, the AE will be counted once as the occurrence for the maximum grade. AEs leading to premature discontinuation of study drug will be summarized and listed in the same manner.

[1] = Cohort 2 (N = 89), additional 3 months follow-up
[2] = Cohort 2 (N = 89), count (percent)
[3] = Cohort 2, additional 3 months follow-up

enfortumab vedotin: Nectin-4 directed ADC: fully human anti-nectin-4 IgG1 kappa antibody (AGS-22C3) conjugated to MMAE via protease-cleavable maleimidocaproyl valine-citrulline linker
TRAEs, Any Grade: Neutropenia [1]: 11 (12) n (%)
TRAEs, Any Grade: Overall [1]: 86 (97) n (%)
TRAEs, Any Grade: Peripheral sensory neuropathy [1]: 44 (49) n (%)
TRAEs, Any Grade: Pruritus [1]: 27 (30) n (%)
TRAEs, Any Grade: Rash maculo-papular [1]: 27 (30) n (%)
TRAEs, Any Grade: nnn Weight decreased [1]: 23 (26) n (%)
TRAEs, ≥Grade 3: Anemia [1]: 5 (6) n (%)
TRAEs, ≥Grade 3: Decreased appetite [1]: 5 (6) n (%)
TRAEs, ≥Grade 3: Diarrhea [1]: 5 (6) n (%)
TRAEs, ≥Grade 3: Fatigue [1]: 6 (7) n (%)
TRAEs, ≥Grade 3: Hyperglycemia [1]: 5 (6) n (%)
TRAEs, ≥Grade 3: Lipase increased [1]: 5 (6) n (%)
TRAEs, ≥Grade 3: Nausea [1]: 1 (1) n (%)
TRAEs, ≥Grade 3: Neutropenia [1]: 8 (9) n (%)
TRAEs, ≥Grade 3: Overall [1]: 49 (55) n (%)
TRAEs, ≥Grade 3: Peripheral sensory neuropathy [1]: 3 (3) n (%)
TRAEs, ≥Grade 3: Pruritus [1]: 3 (3) n (%)
TRAEs, ≥Grade 3: Rash maculo-papular [1]: 7 (8) n (%)
TRAEs, ≥Grade 3: nnn Weight decreased [1]: 1 (1) n (%)
TEAEs leading to death (excluding disease progression): Acute kidney injury [2]: 2 (2.2)
TEAEs leading to death (excluding disease progression): Metabolic acidosis [2]: 1 (1.1)
TEAEs leading to death (excluding disease progression): Multiple organ dysfunction syndrome [2]: 1 (1.1)
TEAEs leading to death (excluding disease progression): Overall [2]: 5 (5.6)
TEAEs leading to death (excluding disease progression): Sepsis [2]: 1 (1.1)
Primary Cause of Death, treatment-related death (Cohort 2, Subject 10007-0180, death on study day 15): Metabolic acidosis
Primary Cause of Death, treatment-related death (Cohort 2, Subject 10013-0190, death on study day 28): Acute kidney injury
Primary Cause of Death, treatment-related death (Cohort 2, Subject 10030-0197, death on study day 25): Multiple organ
Primary Cause of Death, treatment-related death (Cohort 2, Subject 82004-0178, death on study day 203): Pneumonitis
Treatment-related TEAEs of interest: hyperglycemia, all grade [3]: 10%
Treatment-related TEAEs of interest: hyperglycemia, ≥G3 [3]: 6%
Treatment-related TEAEs of interest: peripheral neuropathy, all grade [3]: 56%
Treatment-related TEAEs of interest: peripheral neuropathy, ≥G3 [3]: 8%
Treatment-related TEAEs of interest: rash, all grade [3]: 61%
Treatment-related TEAEs of interest: rash, ≥G3 [3]: 17%
patients who discontinued treatment due to grade 3 dermatitis bullous [3]: one
skin reactions: grade 4 events [3]: 1
skin reactions: grade 5 events [3]: no grade 5 events
treatment-related TEAEs (all-grade): alopecia [3]: 51%
treatment-related TEAEs (all-grade): fatigue [3]: 34%
treatment-related TEAEs (all-grade): peripheral sensory neuropathy [3]: 49%
patients with severe cutaneous adverse reactions (Cohort 2, irrespective of grade, additional 3 months follow-up): 13
rate of hyperglycemia (Cohort 2, patients with preexisting hyperglycemia): 20%
rate of peripheral neuropathy (Cohort 2, patients with preexisting peripheral neuropathy): 60%
rate of hyperglycemia (Cohort 2, patients without preexisting hyperglycemia): 7%
rate of peripheral neuropathy (Cohort 2, patients without preexisting peripheral neuropathy): 55%
patients with severe cutaneous adverse reactions who had grade 3 events (Cohort 2, stomatitis, skin exfoliation, dermatitis bullous, dermatitis exfoliative generalized): 4
additional treatment-related deaths in the updated analysis (Cohort 2, three-month follow-up): No additional treatment-related deaths
AE of special interest, All Grade: Hyperglycemia (Total (N = 214)): 36 (16.8) N (%)
AE of special interest, All Grade: IRR (Total (N = 214)): 14 (6.5) N (%)
AE of special interest, All Grade: Ocular Events, Blurred Vision (Total (N = 214)): 30 (14.0) N (%)
AE of special interest, All Grade: Ocular Events, Corneal Disorders (Total (N = 214)): 23 (10.7) N (%)
AE of special interest, All Grade: Ocular Events, Dry Eye Disorders (Total (N = 214)): 78 (36.4) N (%)
AE of special interest, All Grade: Peripheral Neuropathy (Total (N = 214)): 122 (57.0) N (%)
AE of special interest, All Grade: Rash (Total (N = 214)): 126 (58.9) N (%)
AE of special interest, ≥Gr 3: Hyperglycemia (Total (N = 214)): 18 (8.4) N (%)
AE of special interest, ≥Gr 3: IRR (Total (N = 214)): 2 (0.9) N (%)
AE of special interest, ≥Gr 3: Peripheral Neuropathy (Total (N = 214)): 12 (5.6) N (%)
AE of special interest, ≥Gr 3: Rash (Total (N = 214)): 30 (14.0) N (%)
Any TEAEs (Total (N = 214)): 214 (100.0) n (%)
Any TEAEs leading to death (Total (N = 214)): 15 (7.0) n (%)
Any TEAEs leading to treatment discontinuation (Total (N = 214)): 38 (18.2) n (%)
Any grade 3-5 TEAEs (Total (N = 214)): 155 (72.4) n (%)
Any serious TEAEs (Total (N = 214)): 94 (43.9) n (%)
SAEs (All): Acute kidney injury (Total (N = 214)): 13 (6.1) n (%)
SAEs (All): Cellulitis (Total (N = 214)): 6 (2.8) n (%)
SAEs (All): Diarrhoea (Total (N = 214)): 6 (2.8) n (%)
SAEs (All): Febrile neutropenia (Total (N = 214)): 6 (2.8) n (%)
SAEs (All): Nausea (Total (N = 214)): 5 (2.3) n (%)
SAEs (All): Overall (Total (N = 214)): 94 (43.9) n (%)
SAEs (All): Pneumonia (Total (N = 214)): 6 (2.8) n (%)
SAEs (All): Sepsis (Total (N = 214)): 8 (3.7) n (%)
SAEs (All): Urinary tract infection (Total (N = 214)): 9 (4.2) n (%)
SAEs (Related): Acute kidney injury (Total (N = 214)): 4 (1.9) n (%)
SAEs (Related): Cellulitis (Total (N = 214)): 2 (0.9) n (%)
SAEs (Related): Diarrhoea (Total (N = 214)): 3 (1.4) n (%)
SAEs (Related): Febrile neutropenia (Total (N = 214)): 6 (2.8) n (%)
SAEs (Related): Nausea (Total (N = 214)): 4 (1.9) n (%)
SAEs (Related): Overall (Total (N = 214)): 39 (18.2) n (%)
SAEs (Related): Pneumonia (Total (N = 214)): 1 (0.5) n (%)
Treatment-related AE leading to discontinuation: Acute kidney injury (Total (N = 214)): 2 (0.9) n (%)
Treatment-related AE leading to discontinuation: Asthenia (Total (N = 214)): 1 (0.5) n (%)
Treatment-related AE leading to discontinuation: Dermatitis bullous (Total (N = 214)): 1 (0.5) n (%)
Treatment-related AE leading to discontinuation: Drug eruption (Total (N = 214)): 1 (0.5) n (%)
Treatment-related AE leading to discontinuation: Enterocolitis (Total (N = 214)): 1 (0.5) n (%)
Treatment-related AE leading to discontinuation: Fatigue (Total (N = 214)): 1 (0.5) n (%)
Treatment-related AE leading to discontinuation: Hyperglycaemia (Total (N = 214)): 1 (0.5) n (%)
Treatment-related AE leading to discontinuation: Interstitial lung disease (Total (N = 214)): 1 (0.5) n (%)
Treatment-related AE leading to discontinuation: Lipase increased (Total (N = 214)): 2 (0.9) n (%)
Treatment-related AE leading to discontinuation: Metabolic acidosis (Total (N = 214)): 1 (0.5) n (%)
